Measured values published in the supplement of paper PMC10567573.

B1: SEC22B (parent)
chain: AKQLFRKLNEQSPTRCTLEAGAMT

Variants of: B1
Experiment: protein stability index of a GFP-peptide fusion (GPS, HEK-293T) (PSI 1-6); higher = more stable
Conditions: c terminus: a fixed tail appended
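Note: lentivirally expressed fusions sorted by FACS into six bins by GFP to DsRed ratio, PSI derived from sequencing read proportions per bin multiplied by bin number.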

Point of comparison: AKQLFRKLNEQSPMRCTLEAGAMT, protein stability index 1.79. Against it:
- AKQLFRKLNEQSPTRFTLEAGAMT — higher, 2.15
- AKQLFRKLNEQSPTRCTLERGAMT — higher, 2.77
- AKQLFRKLNEQSPTRCTLEDGAMT — higher, 3.07
- AKQLFRKLNEQSPTRCTLEPGAMT — higher, 2.65
- AKQLFRKLNEQSPTRCTLEQGAMT — higher, 2.87
- AKQLFRKLNEQSPTRCTLEKGAMT — higher, 3.02
- AKILFRKLNEQSPTRCTLEAGAMT — lower, 1.77
- AKTLFRKLNEQSPTRCTLEAGAMT — higher, 2.59
- AKWLFRKLNEQSPTRCTLEAGAMT — higher, 2.53
- AKQLFPKLNEQSPTRCTLEAGAMT — higher, 2.51
- AKQLFRKLNEQSPTRCTLEAYAMT — higher, 1.95
- AKQLFRKLNEQSPTRCTLEAIAMT — higher, 1.88
- AKQLFRKLNEQSPTRCTLEADAMT — higher, 2.99
- AKQLFRKLNEQSPTRCTLEATAMT — higher, 1.86
- AKQLFRKLNEGSPTRCTLEAGAMT — higher, 2.14
- AKQLFRKLNEWSPTRCTLEAGAMT — higher, 1.98
- AKQLFRKLYEQSPTRCTLEAGAMT — higher, 2.6
- AKQLFRKLQEQSPTRCTLEAGAMT — higher, 2.5
- AKQLFRKLLEQSPTRCTLEAGAMT — lower, 1.35
- AKQLFRKLKEQSPTRCTLEAGAMT — higher, 2.58
- AKQLFRKLAEQSPTRCTLEAGAMT — higher, 1.95
- AKQLFRKLEEQSPTRCTLEAGAMT — higher, 3.56
- AKQLFRKLVEQSPTRCTLEAGAMT — lower, 1.39
- AKQLFRKLHEQSPTRCTLEAGAMT — higher, 1.84
- AKQLFRKLTEQSPTRCTLEAGAMT — higher, 1.97
- AKQLFRKLNEQSPTMCTLEAGAMT — higher, 2.71
- AKQLFRKLNEQSPTGCTLEAGAMT — higher, 3.15
- AKQLFRKLNEQSPTVCTLEAGAMT — higher, 3.01
- AKQLFRKLNEQSPTKCTLEAGAMT — higher, 3.2
- AKQLFRKLNEQPPTRCTLEAGAMT — lower, 1.68
- AKQLFRKLNEQEPTRCTLEAGAMT — higher, 3.46
- AKQLFRKLNEQLPTRCTLEAGAMT — higher, 2.84
- AKQLFRKLNEQKPTRCTLEAGAMT — higher, 1.84
- AKQLFRKLNEQSPTRCTLEAGAIT — higher, 2.04
- AKQLFRKLNEQSPTRCTLEAGAHT — higher, 2.25
- AKQLFRKLNEQSPTRCTLEAGALT — higher, 2.47
- AKQLFRKLNEQSPTRCTLEAGAQT — higher, 2.81
- AKQLFRKLNEQSPTRCTLEAGAET — higher, 2.59
- AKQLFRKLNEQSPTRCTLEAGAME — higher, 2.09
- AKQLFRKLNEQSPTRCTLEAGAMH — higher, 2.06
- AKQLFRKLNEQSPTRCTLEAGAMA — higher, 1.82
- AKQLFRKLNEQSPTRCTLEAGAMG — higher, 2.49
- AKQLFRKLNEQSPTRCTLEAGAML — higher, 2.13
- ADQLFRKLNEQSPTRCTLEAGAMT — higher, 2.42
- AMQLFRKLNEQSPTRCTLEAGAMT — higher, 1.8
- APQLFRKLNEQSPTRCTLEAGAMT — higher, 2.57
- AYQLFRKLNEQSPTRCTLEAGAMT — higher, 2.24
- AQQLFRKLNEQSPTRCTLEAGAMT — higher, 2
- AKQLDRKLNEQSPTRCTLEAGAMT — higher, 3.37
- AKQLSRKLNEQSPTRCTLEAGAMT — higher, 3.44
- AKQLMRKLNEQSPTRCTLEAGAMT — higher, 2.62
- AKQLYRKLNEQSPTRCTLEAGAMT — higher, 2.28
- AKQLFRRLNEQSPTRCTLEAGAMT — higher, 2
- AKQLFRLLNEQSPTRCTLEAGAMT — lower, 1.69
- AKQLFRALNEQSPTRCTLEAGAMT — higher, 1.97
- AKQLFRCLNEQSPTRCTLEAGAMT — higher, 2.82
- AKQLFRKLNLQSPTRCTLEAGAMT — lower, 1.08
- AKQLFRKLNHQSPTRCTLEAGAMT — higher, 2
- AKQLFRKLNAQSPTRCTLEAGAMT — higher, 1.88
- AKQLFRKLNQQSPTRCTLEAGAMT — lower, 1.54
- AKQLFRKLNSQSPTRCTLEAGAMT — higher, 2.89
- AKQLFRKLNVQSPTRCTLEAGAMT — higher, 1.81
- AKQLFRKLNEQSVTRCTLEAGAMT — higher, 2.46
- AKQLFRKLNEQSGTRCTLEAGAMT — higher, 1.96
- AKQLFRKLNEQSRTRCTLEAGAMT — higher, 2.73
- AKQLFRKLNEQSDTRCTLEAGAMT — higher, 3.06
- AKQLFRKMNEQSPTRCTLEAGAMT — higher, 2.55
- AKQLFRKGNEQSPTRCTLEAGAMT — higher, 2.49
- AKQLFRKDNEQSPTRCTLEAGAMT — higher, 3.66
- AKQLFRKQNEQSPTRCTLEAGAMT — higher, 3.08
- AKQLFRKSNEQSPTRCTLEAGAMT — higher, 2.35
- AKQLFRKNNEQSPTRCTLEAGAMT — higher, 2.49
- AKQDFRKLNEQSPTRCTLEAGAMT — higher, 3.27
- AKQAFRKLNEQSPTRCTLEAGAMT — higher, 2.73
- AKQHFRKLNEQSPTRCTLEAGAMT — higher, 3.12
- AKQWFRKLNEQSPTRCTLEAGAMT — higher, 2.02
- CKQLFRKLNEQSPTRCTLEAGAMT — higher, 2.09
- RKQLFRKLNEQSPTRCTLEAGAMT — higher, 2.23
- NKQLFRKLNEQSPTRCTLEAGAMT — higher, 2.22
- KKQLFRKLNEQSPTRCTLEAGAMT — higher, 2.77
- AKQLFRKLNEQSPVRCTLEAGAMT — higher, 2.06
- AKQLFRKLNEQSPDRCTLEAGAMT — higher, 3.27
- AKQLFRKLNEQSPTRCTLVAGAMT — lower, 1.75
- AKQLFRKLNEQSPTRCTLPAGAMT — higher, 2.99
- AKQLFRKLNEQSPTRCTLCAGAMT — higher, 2.52
- AKQLFRKLNEQSPTRCTLWAGAMT — higher, 2.22
- AKQLFRKLNEQSPTRCWLEAGAMT — higher, 2.28
- AKQLFRKLNEQSPTRCFLEAGAMT — lower, 1.6
- AKQLFRKLNEQSPTRCTLEAGKMT — the same, 1.79
- AKQLFRKLNEQSPTRCTLEAGEMT — higher, 2.53
- AKQLFRKLNEQSPTRCTLEAGYMT — higher, 2.41
- AKQLFRKLNEQSPTRCTLEAGTMT — higher, 1.84
- AKQLFRKLNEQSPTRCTEEAGAMT — higher, 3.47
